From PMC1361355

How the values were obtained:
ephrinB2 (Homo sapiens) = ephrinB2 (Homo sapiens) (UniProt P52799); conditions: cited from earlier work
[1] = target: human ephrinB2 stably expressed on CHO-pgsA745 cells (CHO-B2) (human) (UniProt P52799); experiment: flow cytometry on cells

Sequence of EphB4 (P54760 16-539): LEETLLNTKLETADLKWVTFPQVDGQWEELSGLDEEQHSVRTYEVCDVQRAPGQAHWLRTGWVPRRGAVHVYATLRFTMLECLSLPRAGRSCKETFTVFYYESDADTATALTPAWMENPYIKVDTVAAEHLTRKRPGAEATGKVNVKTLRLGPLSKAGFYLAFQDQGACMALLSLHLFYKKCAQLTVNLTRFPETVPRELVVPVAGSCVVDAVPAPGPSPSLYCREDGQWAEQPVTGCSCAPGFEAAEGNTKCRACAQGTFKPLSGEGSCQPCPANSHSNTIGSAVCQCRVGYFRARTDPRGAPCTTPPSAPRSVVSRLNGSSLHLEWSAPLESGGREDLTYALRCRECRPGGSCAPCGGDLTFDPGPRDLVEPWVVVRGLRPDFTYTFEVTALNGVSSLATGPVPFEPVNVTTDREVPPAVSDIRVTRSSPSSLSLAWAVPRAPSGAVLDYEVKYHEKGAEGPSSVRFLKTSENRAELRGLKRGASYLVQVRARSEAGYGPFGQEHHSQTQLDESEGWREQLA
Sequence of ephrinB2 (Homo sapiens) (P52799 28-229): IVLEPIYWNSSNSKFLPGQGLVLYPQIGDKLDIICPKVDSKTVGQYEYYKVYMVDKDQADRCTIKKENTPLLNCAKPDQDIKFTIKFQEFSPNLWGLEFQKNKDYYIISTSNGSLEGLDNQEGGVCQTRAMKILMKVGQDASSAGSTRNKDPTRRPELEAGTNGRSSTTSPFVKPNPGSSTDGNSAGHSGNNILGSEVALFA

For EphB4 (from UniProt P54760), which Kd (ephrinB2 (Homo sapiens)) is on record?
Its Kd is 0.5 nM.

Which Kd [1] does the source give for “NiV-G-Fc, a fusion construct between the ectodomain of NiV-G and the Fc region of human IgG1 (from UniProt Q9IH62 71-602) (Fc fusion)” here?
Its Kd is 0.06 nM.
